Values of other authors as cited in article PMC4353500.

What was measured:
[1] = target: Cavβ2a (UniProt Q08289)
[2] = target: Cavβ4b (UniProt D4A055)

Sequence of Cavβ2a (Q08289 whole entry): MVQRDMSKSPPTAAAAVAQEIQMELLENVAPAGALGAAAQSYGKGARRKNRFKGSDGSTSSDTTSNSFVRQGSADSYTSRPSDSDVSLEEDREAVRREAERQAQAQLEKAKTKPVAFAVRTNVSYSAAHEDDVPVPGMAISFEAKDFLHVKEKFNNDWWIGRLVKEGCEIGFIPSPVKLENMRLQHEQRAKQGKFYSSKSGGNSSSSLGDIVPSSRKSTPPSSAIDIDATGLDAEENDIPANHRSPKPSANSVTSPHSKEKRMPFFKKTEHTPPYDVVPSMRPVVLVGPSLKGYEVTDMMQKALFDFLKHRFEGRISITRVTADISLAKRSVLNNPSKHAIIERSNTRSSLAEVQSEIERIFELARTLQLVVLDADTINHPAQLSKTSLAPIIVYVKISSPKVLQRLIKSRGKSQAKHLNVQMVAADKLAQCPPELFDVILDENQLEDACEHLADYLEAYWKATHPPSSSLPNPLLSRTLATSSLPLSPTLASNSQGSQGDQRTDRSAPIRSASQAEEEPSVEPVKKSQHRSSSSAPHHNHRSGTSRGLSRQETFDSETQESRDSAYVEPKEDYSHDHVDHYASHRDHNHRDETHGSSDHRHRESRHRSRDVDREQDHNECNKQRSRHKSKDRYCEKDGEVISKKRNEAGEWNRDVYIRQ

Kd [1]: 35 nM | Kd [2]: 35 nM
Substance: RIM1 CTD (from UniProt Q99NE5)
